Ratio to parent data for two variants are collected here from article PMC5457524, “An engineered high affinity Fbs1 carbohydrate binding protein for selective capture of N-glycans and N-glycopeptides” (Nature Communications, 2017).

Sequences and labels used below:
B1: SNAP-Fbs1 fusion protein (wild-type human Fbs1 sugar-binding domain, residues 92-296) [human] / fetuin [modified: sialylated complex N-linked glycans; sialylated complex N-linked glycans] [not stated] (parent)
chain 1: CQQEGLVPEGGVEEERDHWQQFYFLSKRRRNLLRNPCGEEDLEGWCDVEHGGDGWRVEELPGDSGVEFTHDESVKKYFASSFEWCRKAQVIDLQAEGYWEELLDTTQPAIVVKDWYSGRSDAGCLYELTVKLLSEHENVLAEFSSGQVAVPQDSDGGGWMEISHTFTDYGPGVRFVRFEHGGQDSVYWKGWFGARVTNSSVWVEP
chain 2: IPLDPVAGYKEPACDDPDTEQAALAAVDYINKHLPRGYKHTLNQIDSVKVWPRRPTGEVYDIEIDTLETTCHVLDPTPLANCSVRQQTQHAVEGDCDIHVLKQDGQFSVLFTKCDSSPDSAEDVRKLCPDCPLLAPLNDSRVVHAVEVALATFNAESNGSYLQLVEISRAQFVPLPVSVSVEFAVAATDCIAKEVVDPTKCNLLAEKQYGFCKGSVIQKALGGEDVRVTCTLFQTQPVIPQPQPDGAEAEAPSAVPDAAGPTPSAAGPPVASVVVGPSVVAVPLPLHRAHYDLRHTFSGVASVESSSGEAFHVGKTPIVGQPSIPGGPVRLCPGRIRYFKI

The variants in this assay derive from B1. Kind of assay: fetuin bead pulldown, SDS-PAGE quantified by ImageJ. Particulars: with fetuin [modified: sialylated complex N-linked glycans, E. coli cell lysate containing the same amount of wt Fbs1 or variant Fbs1 fusion protein, parent: 1, read off a plot.
Consider chain 1 D63P S64P G65S, for which the ratio to parent was 2.5 fold change.
As for chain 1 D63P S64P, the ratio to parent came to 1.7 fold change.
